From PMC5490839 (Nature immunology, 2016) come the findings set out here.

Where no end group is shown, it is not given here.

In this experiment the target is T1, Zap70 D461N-tagged (Myc- or hemagglutinin-tagged, kinase-inactive Zap70) (human, UniProt P43403 1-619, D461N).
T1 sequence (looked up): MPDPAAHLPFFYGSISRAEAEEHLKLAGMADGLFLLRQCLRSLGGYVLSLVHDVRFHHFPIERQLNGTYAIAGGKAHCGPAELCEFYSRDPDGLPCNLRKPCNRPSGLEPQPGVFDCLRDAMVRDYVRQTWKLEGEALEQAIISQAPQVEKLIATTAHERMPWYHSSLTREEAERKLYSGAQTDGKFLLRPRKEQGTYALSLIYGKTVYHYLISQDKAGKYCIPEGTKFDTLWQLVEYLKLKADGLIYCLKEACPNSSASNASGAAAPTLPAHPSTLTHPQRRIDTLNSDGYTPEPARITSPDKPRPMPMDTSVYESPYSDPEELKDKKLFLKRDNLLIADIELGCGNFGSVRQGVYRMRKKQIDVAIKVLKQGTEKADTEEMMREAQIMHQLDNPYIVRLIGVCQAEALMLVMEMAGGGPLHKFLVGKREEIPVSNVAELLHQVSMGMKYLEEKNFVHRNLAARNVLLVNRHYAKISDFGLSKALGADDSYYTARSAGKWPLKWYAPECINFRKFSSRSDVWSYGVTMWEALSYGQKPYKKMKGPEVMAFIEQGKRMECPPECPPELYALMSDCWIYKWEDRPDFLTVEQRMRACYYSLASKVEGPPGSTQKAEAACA
Description: ELISA. On the technique in general: ELISA stands for enzyme-linked immunosorbent assay.

On to GGAGQDGVRQSRASDKQTLLPNDQLYQPLKDREDDQYSHLQGNQLRRN (domain or fragment, also: ITAM phosphorylated by Lck, sites not given here, GST fusion), for which the binding result is given as “binds”.
